# In patent US12295987B2, “Method of using a GIP/GLP1 co-agonist for diabetes” (Eli Lilly and Company, priority 2018, dated 2025):
# Numbered stars: 1 amine (or outer) side, 2 acyl side, 3 side chain; on linkers, the order of the positions; unused ones are H or OH. Square brackets hold non-standard residues; d marks the D form. Side chains are listed from the residue outwards. Ends that are not written are not given here. * marks the point of attachment. C20 diacid = O=C(O)CCCCCCCCCCCCCCCCCCC(=O)*; C18 diacid = O=C(O)CCCCCCCCCCCCCCCCC(=O)*; αMePhe(2-F) = C[C@](N)(Cc1ccccc1F)C(=O)O; γGlu = O=C(O)[C@H](CCC(=O)[*:2])N[*:1]; αMeL = CC(C)C[C@](C)(N)C(=O)O; AEEA = NCCOCCOCC(=O)O; Aib = CC(C)(N)C(=O)O
# Target: T1, human gastric inhibitory peptide receptor (hGIPR) (Homo sapiens, UniProt P48546)
# T1 construct: expressed in transfected cells; host or cells: HEK293
# T1 sequence (P48546 22-466): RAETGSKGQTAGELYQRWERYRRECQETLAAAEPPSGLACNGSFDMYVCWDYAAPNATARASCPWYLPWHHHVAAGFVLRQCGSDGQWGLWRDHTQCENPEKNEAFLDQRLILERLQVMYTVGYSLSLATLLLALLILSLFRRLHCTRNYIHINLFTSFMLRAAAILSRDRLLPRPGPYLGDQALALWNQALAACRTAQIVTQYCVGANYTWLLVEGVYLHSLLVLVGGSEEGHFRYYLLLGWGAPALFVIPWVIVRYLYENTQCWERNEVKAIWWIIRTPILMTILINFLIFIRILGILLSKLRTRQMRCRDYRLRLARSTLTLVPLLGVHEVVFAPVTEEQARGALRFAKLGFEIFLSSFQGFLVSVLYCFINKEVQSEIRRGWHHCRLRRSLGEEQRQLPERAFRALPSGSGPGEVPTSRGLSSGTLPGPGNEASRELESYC
# Assay: cAMP pharmacological functional assay in presence of 0.1% casein, hGIPR
# Format: cell-based
# Conditions: ratio of hGIPR to hGLP1R cAMP EC50 ratios
row,Substance,[hGIPR/hGLP1R] EC50 Ratio
1,Y-Aib-EGTFTSDYSILLDKIAQ-Aib-K((2-[2-(2-Amino-ethoxy)-ethoxy]-acetyl)2-(γGlu)-CO—(CH2)18—CO2H)FIEYLIEGGPSSGAPPPS-NH2 (Y[Aib]EGTFTSDYSILLDKIAQ[Aib]K([AEEA-AEEA-γGlu-C20 diacid])FIEYLIEGGPSSGAPPPS-NH2; N-terminus assumed; SMILES CC[C@H](C)[C@H](NC(=O)[C@H](CCCCN)NC(=O)[C@H](CC(=O)O)NC(=O)[C@H](CC(C)C)NC(=O)[C@H](CC(C)C)NC(=O)[C@@H](NC(=O)[C@H](CO)NC(=O)[C@H](Cc1ccc(O)cc1)NC(=O)[C@H](CC(=O)O)NC(=O)[C@H](CO)NC(=O)[C@@H](NC(=O)[C@H](Cc1ccccc1)NC(=O)[C@@H](NC(=O)CNC(=O)[C@H](CCC(=O)O)NC(=O)C(C)(C)NC(=O)[C@@H](N)Cc1ccc(O)cc1)[C@@H](C)O)[C@@H](C)O)[C@@H](C)CC)C(=O)N[C@@H](C)C(=O)N[C@@H](CCC(N)=O)C(=O)NC(C)(C)C(=O)N[C@@H](CCCCNC(=O)COCCOCCNC(=O)COCCOCCNC(=O)CC[C@H](NC(=O)CCCCCCCCCCCCCCCCCCC(=O)O)C(=O)O)C(=O)N[C@@H](Cc1ccccc1)C(=O)N[C@H](C(=O)N[C@@H](CCC(=O)O)C(=O)N[C@@H](Cc1ccc(O)cc1)C(=O)N[C@@H](CC(C)C)C(=O)N[C@H](C(=O)N[C@@H](CCC(=O)O)C(=O)NCC(=O)NCC(=O)N1CCC[C@H]1C(=O)N[C@@H](CO)C(=O)N[C@@H](CO)C(=O)NCC(=O)N[C@@H](C)C(=O)N1CCC[C@H]1C(=O)N1CCC[C@H]1C(=O)N1CCC[C@H]1C(=O)N[C@@H](CO)C(N)=O)[C@@H](C)CC)[C@@H](C)CC) [Peptide 32],6.18
2,"Y-Aib-EGTFTSDY-aMeS-ILLDKK((2-[2-(2-Amino-ethoxy)-ethoxy]-acetyl)2-(γGlu)-CO—(CH2)18—CO2H)AQ-Aib-AFIEYLIEGGPSSGAPPPS-NH2 (YXEGTFTSDYXILLDKKAQXAFIEYLIEGGPSSGAPPPS; Aib, αMeS, lipidated Lys, C-terminal amide; (2)..(2) Xaa at position 2 is Aib; (11)..(11) Xaa at position 11 is alpha-methyl-Ser; MOD_RES (17)..(17) Lys at position 17 is chemically modified by conjugation of the epsilon-amino group of the Lys side chain with (2-[2-(2-amino-ethoxy)-ethoxy]-acetyl)2-(gamma-Glu)-CO-(CH2)18- CO2H; (20)..(20) Xaa at position 20 is Aib; MOD_RES (39)..(39) Ser at position 39 is amidated) [Peptide 68]",4.72
3,Y-Aib-EGT-αMeF(2F)-TSDHSI-αMeL-LDEK((2-[2-(2-Amino-ethoxy)-ethoxy]-acetyl)2-(γGlu)-CO—(CH2)16—CO2H)AQ-Aib-HFI-(D-Glu)-YLIEGGPSSG-NH2 (Y[Aib]EGT[αMePhe(2-F)]TSDHSI[αMeL]LDEK([AEEA-AEEA-γGlu-C18 diacid])AQ[Aib]HFI[dE]YLIEGGPSSG-NH2; N-terminus assumed; SMILES CC[C@H](C)[C@H](NC(=O)[C@H](CC(C)C)NC(=O)[C@H](Cc1ccc(O)cc1)NC(=O)[C@@H](CCC(=O)O)NC(=O)[C@@H](NC(=O)[C@H](Cc1ccccc1)NC(=O)[C@H](Cc1c[nH]cn1)NC(=O)C(C)(C)NC(=O)[C@H](CCC(N)=O)NC(=O)[C@H](C)NC(=O)[C@H](CCCCNC(=O)COCCOCCNC(=O)COCCOCCNC(=O)CC[C@H](NC(=O)CCCCCCCCCCCCCCCCC(=O)O)C(=O)O)NC(=O)[C@H](CCC(=O)O)NC(=O)[C@H](CC(=O)O)NC(=O)[C@H](CC(C)C)NC(=O)[C@](C)(CC(C)C)NC(=O)[C@@H](NC(=O)[C@H](CO)NC(=O)[C@H](Cc1c[nH]cn1)NC(=O)[C@H](CC(=O)O)NC(=O)[C@H](CO)NC(=O)[C@@H](NC(=O)[C@](C)(Cc1ccccc1F)NC(=O)[C@@H](NC(=O)CNC(=O)[C@H](CCC(=O)O)NC(=O)C(C)(C)NC(=O)[C@@H](N)Cc1ccc(O)cc1)[C@@H](C)O)[C@@H](C)O)[C@@H](C)CC)[C@@H](C)CC)C(=O)N[C@@H](CCC(=O)O)C(=O)NCC(=O)NCC(=O)N1CCC[C@H]1C(=O)N[C@@H](CO)C(=O)N[C@@H](CO)C(=O)NCC(N)=O) [Peptide 179],3.40
